{"source": "the nanobody polyreactivity screen of Harvey et al. (2022)", "data": [{"experiment": "yeast display, Sf9 membrane polyspecificity reagent, FACS + sequencing; frameworks hold sequencing errors", "procedure,_shortened": "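Synthetic nanobody libraries on Saccharomyces cerevisiae BJ5465 were galactose-induced for 36–48 hours, stained 1 hour at 4 °C with 10% biotinylated, detergent-solubilized Sf9 membrane reagent and enriched on streptavidin microbeads. FACS then separated cells into low and high (top ~1%) gates by anti-HA (expression) and streptavidin (reagent binding) fluorescence. Genes were colony-PCR amplified, MiSeq 2 × 250 sequenced and CDR-length filtered. A clone's polyreactivity label is that of its gate of origin.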", "values": [{"sequence": "QVQLVESGGGLVQAGGSLRLSCAASGFTLAGYDMGWYRQAPGKERELVATISTYADSVKGRFTISRDNAKNTVYLQMNSLKPEDTAVYDCAKKYVWTHNYWGQGTQVTVSS", "polyreactivity (PSR sort gate)": "low polyreactivity"}, {"sequence": "QVQLVESGGGLVQAGGSLRLSCAASGRTFPLNAMGWFRQAPGKERELVAAITWSGGRTYYADSVKGRFTISRDNAKNTVYLQMNSLKPEDTAVYYCAAKRTTWKIQSGYDYWGQGTQVTVSS", "polyreactivity (PSR sort gate)": "low polyreactivity"}, {"sequence": "QVQLVESGGGLVQAGGSLRLSCAAYGSIFVWYDMGWYRQAPGKERELVATISLSGVSTYYADSVKGRFTISRDNAKNTVYLQMNCLKPEDSAVYYCAADFVEQGEDDYWGQGTQLTVSS", "polyreactivity (PSR sort gate)": "low polyreactivity"}, {"sequence": "QVQLVESGGGLVQAGGSLRVSCDASGFTFFYNAMGRYRQAHGKERELVASISSVGRTNYADSVKGRFRISRDNAKNTVYLQMNSLTPEDTAVYFCAAYRAPATRRRGYYYWGLGTQVTVSS", "polyreactivity (PSR sort gate)": "high polyreactivity"}, {"sequence": "QVQLVESGGGLVQAGGSLRLSCAASGRIFSYNTMGWYRQAPGKERELVAAISGGGTTYYADSVKGRFTISRDNAKNTVYLQMNSLKPEDTAVYYCNAEYYGYSWRRTKYGYWGQGTQVTVSS", "polyreactivity (PSR sort gate)": "high polyreactivity"}, {"sequence": "QVQLVESGGGLVQAGGSLRLSCAASGRIFYPYAMGWYRQAPGKERELVAAITGRGGSTYYADSVKGRFTISRDNAKNTVYLQMNSLKPEDTAVYYCATVQSGRVRTYDYWGQGTQVTVSS", "polyreactivity (PSR sort gate)": "high polyreactivity"}, {"sequence": "QVQLVESGGGLVQAGGSLRLSCAASGFIFYRNTMGWYRQAPGKERELVATISRRGGSTYYADSVKGRFTISRDNAKHTVYLQMNSLKPEDTAVYYCNADQEYSRPRYGMDYWGQGTQVTVSS", "polyreactivity (PSR sort gate)": "high polyreactivity"}, {"sequence": "QVQLVESGGGLVQAGGSLRLSCAASGSTFYSNAMGWYRQAPRKERELVASISWSSGSTYYADSVKGRFTISRDNAKNTVYLQMNSLKPEDTAVYYCATDAGGPYRFGYWGQGTQVTVSS", "polyreactivity (PSR sort gate)": "low polyreactivity"}, {"sequence": "QVQLVESGGGLVQAGGSLRLSCADSGRTIGLNGMGWYRQAPGKERELVAGISWTGGSTNYADSVKGRFTFSRDNEKNTVYLQINSLKPEDTAVYYCAADFVYYVVNDFGWSYAYEYWGQGTQVTVSS", "polyreactivity (PSR sort gate)": "low polyreactivity"}, {"sequence": "QVQLVESGGGLVQAGGSLRLSCAASGSIFTIYAMGWYRQAPGKERELVAAIRESSGSTYYADSVKGRFTISRDYAKNTVYFQINSLKPEDTAVYYCAADINYSSYDYWGQGTQVTVSS", "polyreactivity (PSR sort gate)": "high polyreactivity"}, {"sequence": "QVQLVESGGGLVQAGGSLRLSFAASGSTFKRYLMGWYRQAPGKERELVAAISSRGGSTYYADSVKGRFTISRDYANNTVYLQMISLKPEYTAVFYCATANVRAEDYWGQGTQVTVSS", "polyreactivity (PSR sort gate)": "high polyreactivity"}, {"sequence": "QVQLVESGGGLVQAGGSLRLSCAASGSIFRSNSMGWYRQAPGKERELVAAISSRGGSTYYADSVKGRFTISRDNAKNTVYLQMNSLKPEDTAVYYCYKDRYTVISYDEYDYWGQGTQVTVSS", "polyreactivity (PSR sort gate)": "high polyreactivity"}, {"sequence": "QVQLVESGGGLFQAGGSLRLSCAASGRTIQTYTMGRYRQAPGKERELYAVITTRGGRTYYADSVKGRFTISRDNAKNTFYLQINRLKPEDTGVYYCIKGIPTRSVRSYDYWGQGTQVTVSS", "polyreactivity (PSR sort gate)": "high polyreactivity"}, {"sequence": "QVQLVESGGGLVQAGGSLRLSCAASGNTFWQYAMGWYRQAPGKERELVAAITRSTGSTYYADSVKGRFTISRDNAKNTVYLQMNSLKPEDTAVYYCAADFYRHYFRVDSWGQGTQVTVSS", "polyreactivity (PSR sort gate)": "low polyreactivity"}, {"sequence": "QVQLVESGGGLVQAGGSLRLSCAASGRTFGFNAMGWYRQAPGKERELVAAISGSGGRTYYADSVKGRFTISRDNAKNTVYLQMNSLKPEDTAVYYCAAGARRGGSGYWGQGTQVTVSS", "polyreactivity (PSR sort gate)": "high polyreactivity"}, {"sequence": "QVQLVESGGGLVQAGGSLRLSCAASGFTFERYAMGWYRQAPGKERELVAAITGSGGSTYYADSVKGRFTISRDNAKTTVYLQMNSLKPEDTAVYYCADYSAYYGCDYWGQGTQVTVSS", "polyreactivity (PSR sort gate)": "low polyreactivity"}]}]}
